From US20240010747A1, “ANTI-MRP4 (ENCODED BY ABCC4 GENE) ANTIBODIES AND USES THEREOF” (Kenjockety Biotechnology, Inc., priority 2020, published 2024)

T1: human ABCC4 (Homo sapiens, UniProt O15439)
T1 construct: expressed in transfected cells
T1 sequence (O15439 1-1325): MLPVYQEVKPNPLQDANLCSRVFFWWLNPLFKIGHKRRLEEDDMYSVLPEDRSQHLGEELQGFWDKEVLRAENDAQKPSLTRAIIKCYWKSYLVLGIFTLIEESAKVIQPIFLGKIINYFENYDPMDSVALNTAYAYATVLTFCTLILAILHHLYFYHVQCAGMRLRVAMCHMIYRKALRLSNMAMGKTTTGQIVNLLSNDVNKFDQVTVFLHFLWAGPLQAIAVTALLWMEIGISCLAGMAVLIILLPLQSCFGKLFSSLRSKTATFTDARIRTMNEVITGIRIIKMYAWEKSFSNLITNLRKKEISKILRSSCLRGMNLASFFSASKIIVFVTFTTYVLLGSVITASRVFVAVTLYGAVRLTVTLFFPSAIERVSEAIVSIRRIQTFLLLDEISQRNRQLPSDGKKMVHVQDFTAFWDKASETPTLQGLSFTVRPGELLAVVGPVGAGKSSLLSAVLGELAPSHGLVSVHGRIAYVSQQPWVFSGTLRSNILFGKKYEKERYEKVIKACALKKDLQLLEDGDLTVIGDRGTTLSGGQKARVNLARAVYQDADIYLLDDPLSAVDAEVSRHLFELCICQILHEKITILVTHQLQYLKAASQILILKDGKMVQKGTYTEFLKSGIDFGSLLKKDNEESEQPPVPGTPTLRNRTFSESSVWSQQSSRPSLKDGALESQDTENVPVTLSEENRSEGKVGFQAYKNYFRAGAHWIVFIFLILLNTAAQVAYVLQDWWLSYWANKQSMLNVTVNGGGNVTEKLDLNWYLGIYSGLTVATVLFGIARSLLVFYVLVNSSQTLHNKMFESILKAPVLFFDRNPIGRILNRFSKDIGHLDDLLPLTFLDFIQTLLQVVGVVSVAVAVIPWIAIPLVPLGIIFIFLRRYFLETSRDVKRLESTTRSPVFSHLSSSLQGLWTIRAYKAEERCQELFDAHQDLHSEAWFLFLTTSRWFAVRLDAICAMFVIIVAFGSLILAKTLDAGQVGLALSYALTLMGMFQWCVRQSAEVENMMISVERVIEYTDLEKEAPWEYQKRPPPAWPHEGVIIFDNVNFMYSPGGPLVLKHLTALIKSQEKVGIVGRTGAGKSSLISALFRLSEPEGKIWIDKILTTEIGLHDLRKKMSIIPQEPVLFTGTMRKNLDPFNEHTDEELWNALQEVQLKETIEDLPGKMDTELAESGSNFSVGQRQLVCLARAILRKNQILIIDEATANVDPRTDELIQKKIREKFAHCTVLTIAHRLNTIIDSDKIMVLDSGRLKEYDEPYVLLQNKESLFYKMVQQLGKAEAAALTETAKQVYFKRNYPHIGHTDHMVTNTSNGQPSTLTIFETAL


Assays:
[1] = target: T1, human ABCC4; test: Flow cytometry (FACS) binding to C6 cells stably transfected to express human ABCC4 (different experiment, Table 4); details: for Human ABCC4 binding: C6 cells stably transfected to express human ABCC4, FACS, different experiment, Table 4
Method in brief: (§1)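 Murine C6 cells stably expressing FLAG-tagged human or cynomolgus ABCC4 incubated 30 min on ice with antibodies, either 5 ug/mL or serially diluted from 100 ug/mL, in PBS+2% FBS+0.02% azide. Detection with PE anti-human IgG F(ab′)2 by flow cytometry; EC50 at half-maximal MFI; negative below background, positive >3× background.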

[2] = test system: cynomolgus ABCC4; test: Flow cytometry (FACS) binding to C6 cells stably transfected to express cynomolgus ABCC4 (different experiment, different C6.cC4 cell line, Table 4); design: key to Cynomolgus ABCC4 binding: Negative (−)=Rmax (MFI) below background level; Positive (+)=MFI>3× background level; details: for Cynomolgus ABCC4 binding: different C6.cC4 cell line, C6 cells stably transfected to express cynomolgus ABCC4, FACS, Table 4
Method in brief: as §1

[3] = test system: cynomolgus ABCC4; test: Flow cytometry (FACS) binding to C6 cells stably transfected to express cynomolgus ABCC4 (Table 3 study); design: key to Cynomolgus ABCC4 binding: Negative (−) is defined as maximum response (Rmax(MFI)) below background level; Positive (+) is defined as MFI>1000; details: C6 cells stably transfected to express cynomolgus ABCC4, FACS; Table 3
Procedure: (§2) Binding titration of recombinant antibodies to ABCC4 transfectants was performed by serial dilution of antibodies from about 666 nM. Diluted antibody in flow cytometry buffer was incubated with cells on ice for 30 min. After 2 washes with flow cytometry buffer, bound antibody was detected with PE-labeled F(ab′)2 fragment goat anti-human IgG (Jackson ImmunoResearch) diluted 1:200 in flow cytometry buffer and incubated with cells for 20 min on ice. After 2 washes with flow cytometry buffer fluorescence was measured on an Attune N×T flow cytometer. Data were analyzed with GraphPad Prism 8.0 software to determine EC50's.
(§3) Human embryonic kidney HEK 293T cells and murine C6 (ATCC CCL-107) were transfected with human or cynomolgus ABCC4 cDNA with C-terminal fused FLAG tag in a pMONO-hygro vector with Lipofectamine 3000 (Invitrogen #L3000001). The cells were treated with 0.2 mg/ml and 0.5 mg/ml hygromycin respectively for about 2 weeks while cultivated in DMEM and 10% FBS with 0.2 mg/ml hygromycin and 0.5 mg/ml hygromycin, respectively. The cells were washed with PBS, and stained with […] of anti-FLAG-PE after fixing and permeablization. Clones expressing ABCC4 were single-cell sorted into 200 μl DMEM with 10% FBS using a BD Aria FACS machine and cultivated in 96 well plates using standard techniques in an incubator at 37° C. and 5% CO 2. Two weeks later clones expressing high levels of ABCC4 were screened and amplified.
(§4) Antibody binding to cells was evaluated by flow cytometry. Murine C6 cells stably transfected to express human or cynomolgus ABCC4 were washed once in flow cytometry buffer (PBS+2% FBS+0.02% sodium azide), resuspended at 2×10^6 cells/mL in flow cytometry buffer, and dispensed into 96-well microtiter plates at 0.1 mL/well. Recombinant antibodies were added to cells at 5 ug/mL for initial binding confirmation, or serially diluted from 100 ug/mL in flow cytometry buffer. After incubating cells on ice for 30 min, cells were washed twice with flow cytometry buffer. Bound antibody was detected with PE-labeled F(ab′)2 fragment goat anti-human IgG (Jackson ImmunoResearch) and evaluated on an Attune N×T flow cytometer. EC50 is calculated to be the concentration of antibody that gives half maximal response.
(§5) Table 3 lists the following characteristics of the rat anti-ABCC4 antibodies tested: binding to C6 cells stably transfected to express human ABCC4 measured by FACS and binding to C6 cells stably transfected to express cynomolgus ABCC4 measured by FACS. Negative (−) is defined as maximum response (Rmax(MFI)) below background level. Positive (+) is defined as MFI>1000.

[4] = target: T1, human ABCC4; test: Flow cytometry (FACS) binding to C6 cells stably transfected to express human ABCC4 (Table 3 study); details: C6 cells stably transfected to express human ABCC4, FACS; Table 3
Procedure: as §2, §3, §4, §5

Human ABCC4 binding [1]	Human ABCC4 binding [4]	binding to human ABCC4 expressed on cell surface ([1]; Table 4 study, stated in words)	Molecule	Cynomolgus ABCC4 binding [2]	Cynomolgus ABCC4 binding [3]	binding to cynomolgus ABCC4 expressed on cell surface ([2]; Table 4 study, stated in words)
+ (Positive (+)=MFI>3× background level)	+ (Positive (+) is defined as MFI>1000)		C4.985: anti-ABCC4 antibody raised in rats; VH SEQ ID NO: 14, VL SEQ ID NO: 134 (antibody, V domains shown) VH: EVQLVESGGGLVQPGRSLKLSCTASGFTFNKNWMAWIRQAPGKGLEWVASITNTGGNTYYPDSVKGRFTVSRDQTISTLYLQMNSLRSEDTATYFCTRERIGSGYYVMDAWGRGASVTVSS VL: DTVLTQSPALTVSPGERVTISCRASESVTSFMNWYQQKPGQQPKLLIYLASDLESGVPARFSGSGSGADFTLTIDPVEADDTATYYCQQSWIDPPTFGTGTKLELK	−	−	
+ (Positive (+)=MFI>3× background level)	+ (Positive (+) is defined as MFI>1000)		C4.947: anti-ABCC4 antibody raised in rats; VH SEQ ID NO: 5, VL SEQ ID NO: 128 (antibody, V domains shown) VH: EVKLVESGGGLVQPGGSMRLSCAASGFTFTDFYMNWIRQPAGKAPEWLGFIRNKANAYTTAYNPSVKGRFTISRDNAQNMLYLQMNTLRAEDTATYYCARSNYGFDYWGQGVMVTVSS VL: DVAMTQTPPSLSVAIGQSVSISCKSSQSLVYSDGKTYLHWLLQSSGRSPKRLIYQVSNLDSGVPDRFSGTGSQKDFTLKISRVEAKDLGVYYCAQTTHFPFTFGSGTKLEIK	−	−	
+ (Positive (+)=MFI>3× background level)	+ (Positive (+) is defined as MFI>1000)		C4.987: anti-ABCC4 antibody raised in rats; VH SEQ ID NO: 15, VL SEQ ID NO: 135 (antibody, V domains shown) VH: EVQLVESGGGLVQPGRSMKLSCAASGFTFSNYYMAWVRQAPTKGLEWVASISTGGGNTHYRDSVKGRFTISRDNAKSTLYLQMDSLRSEETATYYCARGEDRYKGVFAYWGQGTLVTVSS VL: DVQMTQSPSNLAASPGESVSINCKASKSISKYLAWYQQKPGKANKLLIYSGSTLQSGTPSRFSGSGSGTDFTLTIRNLEPEDFGLYYCQHHNEYPPTFGAGTKLELK	−	−	
+ (Positive (+)=MFI>3× background level)	+ (Positive (+) is defined as MFI>1000)		C4.991: anti-ABCC4 antibody raised in rats; VH SEQ ID NO: 16, VL SEQ ID NO: 136 (antibody, V domains shown) VH: EVKLVESGGGLVQPGRSLQVSCVASGFIFTDYYMAWVRQAPTKGLEWVAYINYDGGSTYYGDSVKGRFTISRDNAKSTLYLQMNSLRSEDMATYYCARRDYGSKFDNWGQGTLVTVSS VL: DIVMTQSPSLLSASVGDRVTLTCKGSQNINNFLAWYQQKRGEAPKLLIYKTNSLHTGIPSRFSGSGSGTEYTLTISSLHSEDLATYYCYQYNNGYTFGAGTKLELK	−	−	

Continued, molecule first:

Molecule	Human ABCC4 binding [1]	Human ABCC4 binding [4]	binding to human ABCC4 expressed on cell surface ([1]; Table 4 study, stated in words)	Cynomolgus ABCC4 binding [2]	Cynomolgus ABCC4 binding [3]	binding to cynomolgus ABCC4 expressed on cell surface ([2]; Table 4 study, stated in words)
C4.1000: anti-ABCC4 antibody raised in rats; VH SEQ ID NO: 18, VL SEQ ID NO: 138 (antibody, V domains shown) VH: QVQLTESGPGLVQPSQTLSLTCTISGFSLTSYGVSWVRQPPGKGLEWIGAIWSGGGTNYDSALKSRLSISRDTSKSQVLLKMNSLQTEDTAMYFCASGDWFAYWGQGTLVTVSS VL: DIQMTQSPPSLSASLGDKVTITCQASQNINKYIAWFQQKPGKAPRLLIRYTSTLESGTPSRFSGSGSGRDYSFSISTVESEDIASYYCLQYVNLYTFGAGTKLELK	+ (Positive (+)=MFI>3× background level)	+ (Positive (+) is defined as MFI>1000)		−	−	
C4.972: anti-ABCC4 antibody raised in rats; VH SEQ ID NO: 11, VL SEQ ID NO: 132 (antibody, V domains shown) VH: EVQLKESGPGLVQPSETLSLTCTVSGFSLTSYNVHWVRQPPGKGLEWMGVMWSGGSTDYSSALKSRLSISRDTSKNQVFLKMNSLQSEDTTTYYCARDRGGYYYDGYPHDFVYWGQGVMVTVSS VL: EIVIIQSPALAVSLGQRATISCKTNQNVDYYGNSYIHWYQQKPGQQPKLLIYLASNLASGIPARFSGRGSGTDFTLTIDPVEADDPATYYCQQSRNLPFTFGSGTKLELK	+ (Positive (+)=MFI>3× background level)	+ (Positive (+) is defined as MFI>1000)	bind to both human and cynomolgus ABCC4	+ (Positive (+)=MFI>3× background level)	−	bind to both human and cynomolgus ABCC4
C4.884: anti-ABCC4 antibody raised in rats; VH SEQ ID NO: 1, VL SEQ ID NO: 124 (antibody, V domains shown) VH: EVQLVESGPGLVQPSQTLSLTCTVSGFSLTSNSVHWVRQPPGKGLEWIGAIWSGGSTDYNSALKSRLSISRDTSKSQVFLKMNSLQTEDTAIYFCTGLIFPYWGQGASVTVSS VL: DVVMTQTPSILSGTLGRSVSISCRSSQSLLDSDGTTYLYWFLQRPGQSPQRLIYLVSNLGSGVPNRFSGSGSGTDFTLKISGVEAEDLGVYYCMQATHVPFTFGSGTKLEIK	+ (Positive (+)=MFI>3× background level)	+ (Positive (+) is defined as MFI>1000)		−	−	
